Laboratory results published in the supplement of paper PMC12042874.
± gives the uncertainty stated by the source.

Assay: amyloid nucleation score (Sup35N fusion, yeast selection) (log enrichment); library NNK1; higher = more nucleation; inactive = no reads after selection
Method in brief: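 For the nucleation score, DiMSum gave the log enrichment of output over input reads, centred on the mode score of non-aggregating sequences. Psi-negative yeast expressing Sup35N fused to peptides of 20 random codons were induced with 100 μM copper sulfate for 24 hours and grown 7 days at 30°C on medium lacking adenine and uracil. Input and output plasmid inserts were Illumina-sequenced, and sequences with under 100 input reads were excluded.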

| Substance | amyloid nucleation score |
| --- | --- |
| GDRRLSVLGPYMARSVWGER | -0.242 ± 0.31 |
| YYPVKSFELGWSHLGGKHWA | 1.34 ± 0.7 |
| RVNFSDTYTSSGGFALGMST | 0.43 ± 0.3 |
| FHNRINKPTK | inactive |
| CYYSRFHFAPISIMFCVNGG | 5.99 ± 0.076 |
| HLKHVWSYLPSSNVEEMQ | 0.766 ± 0.63 |
| LLMNQV | 0.715 ± 0.5 |
| AIAGSAMVEGAH | 0.985 ± 0.77 |
| IFSNQSATLGLSVSSWIYLE | -0.983 ± 0.4 |
| IVMCTVGKSLMIAQKDHAWA | -0.109 ± 0.61 |
| FDLTLCICCLRSECYYITPR | 8.732 ± 0.049 |
| VHVFSCLCPLLGSMIFLWMV | -0.871 ± 0.68 |
| WNSFTELRAHMLYHLKKIII | 1.72 ± 0.22 |
| GGESQFLGFTHCKLAFCSWW | 0.236 ± 0.5 |
| LSQTKSL | -0.012 ± 0.77 |
| LIWSMEALYFMDLLGG | inactive |
| SIGRLIPYFNQTPFCIS | -0.338 ± 0.23 |
| GLFTVNDV | 0.374 ± 0.36 |
| CVRNGLGCYSCTRTFFTVIV | -0.409 ± 0.94 |
| GLWHAC | inactive |
| YRLRYI | inactive |
| GVMRKNMNKAWFTRDIDSF | 0.752 ± 0.41 |
| SFVFAVWFW | 0.181 ± 0.83 |
| DVYVWGGCLVSIKVLWMAWG | 0.117 ± 0.94 |
| FDNLIVYVTVYFFLTYAPFV | 1.41 ± 0.26 |

| Substance | amyloid nucleation score |
| --- | --- |
| SWSRRDVYKEGLDGGMGEGA | -1.07 ± 1.3 |
| YRLCSMSMRCGLRSIFSNRL | 0.606 ± 0.57 |
| SITADLGHNSVALGVALLVI | -0.057 ± 1.7 |
| FSDVQCG | inactive |
| NFVGFL | -0.33 ± 0.58 |
| KDGFTSRAWPHMFKSLRSQL | 1.07 ± 0.63 |
| RSEELYGQDVQEKSAGPRVS | -0.089 ± 1.2 |
| LPFMHYYHSGY | -0.814 ± 1.4 |
| HFGAYLVVM | -0.299 ± 0.35 |
| NAPLEWSSGHASQIVLGHVT | -0.177 ± 0.69 |
| VSPMWVGYSRTSKLW | 0.036 ± 0.26 |
| EDMTLMLNNFSPILAIGWWT | 1.25 ± 0.25 |
| HHMRCLGTLNNLCKCCFEER | 3.41 ± 0.11 |
| CDWSCSDSVCFITLCKYDDC | 6.921 ± 0.047 |
| FAVSIVSFLRASVVDWVWYT | -0.209 ± 0.66 |
| FTFSFLYFFQWCHTGAPARF | 0.602 ± 0.73 |
| KRSRYSKR | 0.103 ± 0.48 |
| LDNLWYL | 0.623 ± 0.88 |
| SSGYYFVQWTCYLRK | -1.27 ± 2.7 |
| IVGVYLSLNWRHPSRQGSGC | 0.321 ± 0.19 |
| LELDRFDNFRYGSAPRCYLP | inactive |
| FFALIYI | 0.357 ± 0.36 |
| LDRMFSVVRNNVTTSVLSEK | 0.234 ± 0.32 |
| WKGLRYLNFYFTE | 4.52 ± 0.059 |
| AYLADCFPDVSTNWVRAISA | -0.337 ± 0.29 |

| Substance | amyloid nucleation score |
| --- | --- |
| EIQGNLNILSLLGLSRRSKG | 0.016 ± 0.72 |
| TRLCWFWFNA | 0.066 ± 0.41 |
| MFNKVSLSVWASFVWKIIIH | -0.654 ± 0.83 |
| NVSSCDW | -1.22 ± 0.71 |
| RFFPWQPCNPHIMPLIFWMP | 0.692 ± 0.82 |
| MRFYAMGRDVYICCDGNKIL | 5.07 ± 0.066 |
| FLAYLPSEKC | -0.267 ± 0.44 |
| GGTRDVFEFHNSDTPDAVYQ | -0.043 ± 0.3 |
| TKWLLFLVRTRHVMMCGGVM | inactive |
| NGVLYFD | 0.371 ± 0.57 |
| SASEIPALSTTGSNGMDEVI | -0.249 ± 0.54 |
| WREGDI | -0.294 ± 1.2 |
| VSQCS | 0.238 ± 0.54 |
| RSIRSIESNYYLRNVTFISR | 1.09 ± 0.31 |
| SIRLYETHSLT | 0.885 ± 0.14 |
| TVPLEIIL | 0.382 ± 0.52 |
| QLLAVMWKGHHVYRELCGRL | -0.549 ± 0.46 |
| NVCLLGRLRFYVVLTGIRDL | -0.34 ± 0.74 |
| NIWVLTYCLVYLSWSNHVF | -0.709 ± 0.78 |
| PLYGASDK | -0.277 ± 0.97 |
| IPGGLNKERPYWYCTQMAGT | 1.25 ± 0.55 |
| RCSLPLWFQYYGAMTVHGTV | 0.61 ± 0.35 |
| SVRGSYCYASLVCSDFL | -1.12 ± 0.84 |
| LILFWF | -0.5 ± 1.4 |
| SMLDNDTSNMLEMPIGMYVA | inactive |

| Substance | amyloid nucleation score |
| --- | --- |
| RFYTYQNDVAGSDDKFSMLC | -0.232 ± 0.24 |
| TRQNMFGIHHPWYNRRIS | -0.458 ± 0.42 |
| SDMLYLQLVKLASWFHFNLK | -0.199 ± 0.38 |
| GYPWVV | 0.993 ± 0.55 |
| FTMLYSVYPSGRPGSQSGR | 1.92 ± 0.21 |
| GFPSRSIHFKLYLAANMQ | 1.07 ± 0.53 |
| FWNLVF | 1.36 ± 0.64 |
| SILMIMMTLSSVQRLMLTGS | -0.161 ± 0.71 |
| GMDCH | -0.175 ± 0.25 |
| AFALHSHFLSL | 1.75 ± 0.19 |
| TDADYTPHVQSVPYYAHLII | 3.88 ± 0.14 |
| HYYANSGVCSTSVNLFRLGS | 6.529 ± 0.049 |
| YLQVGASADWKLTYSGSGNV | 2.72 ± 0.23 |
| DVTLVNFIG | 0.285 ± 0.48 |
| WNSSFLHRLWEGSNLSARCC | inactive |
| ARYRYVTVYQV | -0.725 ± 0.35 |
| SWRGICV | inactive |
| RVEFHGIR | 1.62 ± 0.32 |
| VSGTVLTIEYCPY | 0.844 ± 0.27 |
| GVVTLFTEYSSEPCRCGFRQ | -0.21 ± 0.53 |
| IFYYNRCWLTRYRVICLESI | -1.38 ± 0.51 |
| GFGSMLVEVTLYSAVAVAAR | 0.852 ± 0.52 |
| CDTFYLLVLALTYWEWANLE | -0.497 ± 0.99 |
| NFVARSLLPNILAGLRGTGC | -0.139 ± 0.59 |
| RCVMFQVRHSNIGRKRDYGI | 0.389 ± 1.2 |

| Substance | amyloid nucleation score |
| --- | --- |
| KLLWSPYSGCVVYNIKVKGR | 3.67 ± 0.13 |
| AKSREWGDIARFSHPPALRA | -0.147 ± 0.4 |
| GSWATVWVVKDPEVADCCGL | -1.53 ± 1.6 |
| LWLRCLSIAAGIHQ | 2.31 ± 0.12 |
| FEHVPLFTTMPIEEFYRIVY | 0.262 ± 0.28 |
| QRSNRGLPYKSRDGI | 0.153 ± 0.39 |
| EFYYMKLRYRVRRKF | -0.716 ± 0.45 |
| VEWASRDTHWRSLSLIIYLG | inactive |
| MVRWFWVVGHQVFTYVRLWR | -0.076 ± 0.74 |
| QISRLKHYQTHVRMLLTLEG | -0.068 ± 0.42 |
| GSYRLKCCTYLVGKY | 1.73 ± 0.28 |
| AYETLR | -0.385 ± 0.59 |
| FSALLIPENISD | -1.25 ± 1.7 |
| NNCAFYSLRWRKLWLGGMHV | 8.364 ± 0.056 |
| CFNVYWLFAIGGYGMRLRSD | -1.04 ± 1.1 |
| DKYTARDVSKRT | 1.56 ± 0.59 |
| CLFNSGFSDIGLRGMWGRKF | 0.358 ± 0.35 |
| DRRIEYVVDLGSSCGMTTHV | 0.049 ± 0.41 |
| NEIYKTA | -1.12 ± 2.7 |
| VVQGVTCSLIMYSTRNCLFR | -0.444 ± 1.6 |
| CGSRSCSLFDRKWIRYFLGC | 0.759 ± 0.34 |
| VIQRTYCGRVLNLHALI | 0.245 ± 0.57 |
| TYHVSEV | -0.175 ± 0.24 |
| IMRNVQTDA | 0.383 ± 0.52 |
| NNMSIWGMTVTEYLFITNMN | 0.643 ± 0.53 |

| Substance | amyloid nucleation score |
| --- | --- |
| YCDRDLKNKVLSNV | -0.132 ± 0.42 |
| HNQCHVKYDYHYL | -0.183 ± 0.78 |
| SYYRLGACSRCHYFFMIEAR | inactive |
| CIIVFPISTPWAQGSYIRIQ | 0.041 ± 1.2 |
| CGFDRMAMYWVNFDLHWSSA | 0.121 ± 0.36 |
| VRSYDRMFYRDPQDLL | -0.077 ± 0.22 |
| SWFNISAVLENMGRYS | 0.26 ± 0.44 |
| SSRDGTIRRGWIWVDVRVKS | 0.142 ± 0.48 |
| AFPSVRSAFSYLVVPCTICT | 0.606 ± 0.53 |
| YCIGYGKICSYMRIVSSGLQ | 0.901 ± 0.24 |
| ALVFSALLVFRCGDCAASKA | 4.25 ± 0.062 |
| GQFEHGVGVQQSSGSTQRWL | -1.21 ± 2.4 |
| YFAVWSSRDTFRFYLILINP | -0.427 ± 0.33 |
| YNSWFI | 0.586 ± 0.55 |
| VLSRSMH | -0.206 ± 1.7 |
| MFSSVLIWKY | 1.12 ± 0.56 |
| FVNFWN | 0.473 ± 0.53 |
| VVGSMVRSGLGPQPMTS | 1.08 ± 0.68 |
| SSCKWSSKPAHEFQVMTAPT | -0.007 ± 0.65 |
| VTVLSSVLIL | 0.332 ± 0.27 |
| WVTVPNTKKTNVLFGQWTIV | -0.379 ± 0.39 |
| GAVARIIDAVCVRLV | -0.643 ± 1.1 |
| LKASWRAGRATVREKGCKLA | 0.505 ± 0.38 |
| VWPAQGS | -0.325 ± 0.8 |
| GTCYGCLLILVCSLFGSTTG | 1.12 ± 0.66 |

| Substance | amyloid nucleation score |
| --- | --- |
| CILSSHL | 2.61 ± 0.33 |
| WFTAFARK | 3.41 ± 0.11 |
| RSNEIVEFGSPWYKMTKGMR | 0.44 ± 0.31 |
| EGLLFYEYSSMCVEKDWIKN | -0.136 ± 0.43 |
| KKDSTYSRSRLDPFRLSVSV | -0.14 ± 0.5 |
| HRILVGGFRSCVMT | 0.311 ± 0.32 |
| VDRVGIQYVLEWCSRRSGQV | 0.04 ± 1.4 |
| MRSFAFWNYVFGRGMFPVFW | -0.272 ± 0.41 |
| WRVHSNKRKLGSCLLTGTIF | 0.656 ± 0.5 |
| YWYNNAWASLWFQAWVDWYI | 0.446 ± 0.33 |
| GNYTS | -0.894 ± 0.59 |
| SAQSTILICLHKGLDMSERH | 5.8 ± 0.077 |
| MTMAFRKLFSVVRILMNMRL | 0.059 ± 0.3 |
| SGEDVSGCQDLFALVPMGQG | 0.495 ± 0.51 |
| VFLVGMFLIRRVAVN | 0.72 ± 0.87 |
| NICDFLIYVYYLRSVCDI | -0.358 ± 0.41 |
| GIRMRSKNYGSWWFPLLYGE | 0.827 ± 0.84 |
| GDIRGQMCMWYLW | -1.73 ± 2.7 |
| LGFCTLFISMEDQLCVLQIL | -0.546 ± 1.2 |
| FFNRTKTHEVDADGALSTL | 0.508 ± 0.88 |
| YKGYYCGSDDFPDSEKPEDG | -0.256 ± 0.32 |
| RNCEEGFWRSEQPDHTYKLA | -0.955 ± 0.62 |
| TNTFFLTILHPRFVKMGPCW | 4.55 ± 0.1 |
| VYEYFRLAGGAIQIAGIPVA | -0.002 ± 0.72 |
